The chains are these.
B1: E190Q (protein)
chain: MPQEARTPQQQVTADEVGDWYDKFGEVYHLTLGESVHCGLWFPPDAPVPQDMELVTMSSQAQDRFTDYLIETLDPKAGQHLLDIGCGTGRPALKAARQRGIAVTGVAVSKEQIAAANRLAAGHGLTERLTFEVADAMRLPYEDESFDCAWAIESLDHMDRAKALGEAWRVLKPGGDLLVAEEVVTEELTQPETALFETLFALNVPPRLGEFFDIVSGAGFHTLSLKDLSADLAMTMNVFALGVYSRRAEFTERFGAEFVDGLLAGLGSAQETVIRKTRFFMATLRKPAV
modifications: Modified from pMT1
B2: E190P, G122S (protein)
chain: MPQEARTPQQQVTADEVGDWYDKFGEVYHLTLGESVHCGLWFPPDAPVPQDMELVTMSSQAQDRFTDYLIETLDPKAGQHLLDIGCGTGRPALKAARQRGIAVTGVAVSKEQIAAANRLAASHGLTERLTFEVADAMRLPYEDESFDCAWAIESLDHMDRAKALGEAWRVLKPGGDLLVAEEVVTEELTPPETALFETLFALNVPPRLGEFFDIVSGAGFHTLSLKDLSADLAMTMNVFALGVYSRRAEFTERFGAEFVDGLLAGLGSAQETVIRKTRFFMATLRKPAV
B3: H123Q (protein)
chain: MPQEARTPQQQVTADEVGDWYDKFGEVYHLTLGESVHCGLWFPPDAPVPQDMELVTMSSQAQDRFTDYLIETLDPKAGQHLLDIGCGTGRPALKAARQRGIAVTGVAVSKEQIAAANRLAAGQGLTERLTFEVADAMRLPYEDESFDCAWAIESLDHMDRAKALGEAWRVLKPGGDLLVAEEVVTEELTEPETALFETLFALNVPPRLGEFFDIVSGAGFHTLSLKDLSADLAMTMNVFALGVYSRRAEFTERFGAEFVDGLLAGLGSAQETVIRKTRFFMATLRKPAV
modifications: Modified from pMT1
B4: Q11W (protein)
chain: MPQEARTPQQWVTADEVGDWYDKFGEVYHLTLGESVHCGLWFPPDAPVPQDMELVTMSSQAQDRFTDYLIETLDPKAGQHLLDIGCGTGRPALKAARQRGIAVTGVAVSKEQIAAANRLAAGHGLTERLTFEVADAMRLPYEDESFDCAWAIESLDHMDRAKALGEAWRVLKPGGDLLVAEEVVTEELTEPETALFETLFALNVPPRLGEFFDIVSGAGFHTLSLKDLSADLAMTMNVFALGVYSRRAEFTERFGAEFVDGLLAGLGSAQETVIRKTRFFMATLRKPAV
modifications: Modified from pMT1
B5: Q60R (protein)
chain: MPQEARTPQQHVTADEVGDWYDKFGEVYHLTLGESVHCGLWFPPDAPVPQDMELVTMSSQAQDRFTDYLIETLDPKAGQHLLDIGCGTGRPALKAARQRGIAVTGVAVSKEQIAAANRLAAGHGLTERLTFEVADAMRLPYEDESFDCAWAIESLDHMDRAKALGEAWRVLKPGGDLLVAEEVVTEELTEPETALFETLFALNVPPRLGEFFDIVSGAGFHTLSLKDLSADLAMTMNVFALGVYSRRAEFTERFGAEFVDGLLAGLGSAQETVIRKTRFFMATLRKPAV
modifications: Modified from pMT1
B6: Q60K (protein)
chain: MPQEARTPQQQVTADEVGDWYDKFGEVYHLTLGESVHCGLWFPPDAPVPQDMELVTMSSRAQDRFTDYLIETLDPKAGQHLLDIGCGTGRTALKAARQRGIAVTGVAVSKEQIAAANRLAAGHGLTERLTFEVADAMRLPYEDESFDCAWAIESLCHMDRAKALGEAWRVLKPGGDLLVAEEVVTEELTEPETALFETLFALNVPPRLGEFFDIVSGAGFHTLSLKDLSANLAMTMNVFALGVYSRRAEFTERFGAEFVDGLLAGLGSAQETVIRKTRFFMATLRKPAV
modifications: Modified from pMT1

One assay can be described thus: In-vivo cis-α-irone production screening of pMT7 and pMT12 mutants. The assay is classed as cell-based, Escherichia coli. The settings on record: mutations made to pMT12; normalized to pMT12 (=1). An excerpt:
Q60 was identified as another possible mutation site.
FIGS. 24a and 24b show the in-vivo and in-vitro cis-α-irone production of other possible single mutations to pMT12. The in-vitro results in FIG. 24b validate the mutations and in-vivo results in FIG. 24a. The mutations in FIG. 24 include Q11H (SEQ ID No. 23), V12R (SEQ ID No. 24), A95C (SEQ ID No. 25), H123Q (SEQ ID No. 26), E127T (SEQ ID No. 27), M137T (SEQ ID No. 28), D176V (SEQ ID No. 29), D176Y (SEQ ID No. 30). P191S (SEQ ID No. 31), P191V (SEQ ID No. 32), F212L (SEQ ID No. 33), S268H (SEQ ID No. 34), AND T272A (SEQ ID No. 35). The screening results in FIGS. 24 and 25 are semi-quantitative to identify beneficial mutants that give greater than one-fold change of irone production as compared to pMT12.
FIGS. 25a to 25c (and Table 4) show the in-vivo testing results of other possible mutations that may be made to pMT12 to improve its in-vivo production of cis-α-irone. FIGS. 25a to 25c each include two dotted lines to account for a 10% error bar to show the normalized fold change of 0.9 and 1.1.
The four plasmids were transformed into E. coli BL21 (DE3), ΔaroA, ΔaroB, ΔaroC, ΔserC or E. coli BL21 (DE3), ΔaroA, ΔaroB, ΔaroC, ΔserC, ΔmetJ strains and plated on Agar plate containing LB media (10 g, tryptone. 5 g, yeast extract. 10 g, NaCl) supplemented with appropriate antibiotics (100 mg/L ampicillin, 34 mg/L chloramphenicol, 50 mg/L kanamycin, and 100 mg/L spectinomycin). One colony was picked and inoculate into LB media with antibiotics. 1% of overnight culture was inoculated into 1 ml fresh auto-inducing chemically defined media. The chemical media contains carbon source solution: 0.5 g/L glucose, 10 g/L glycerol; inducer: 30 mM lactose and base media: 2 g/L ammonium sulfate, 4.2 g/L KH2PO4, 11.24 g/L K2HPO4, 1.7 g/L citric acid, 0.5 g/L MgSO4, and 10 mL/L trace element solution. The trace element solution (100×) contained 0.25 g/L CoCl2·6H2O, 1.5 g/L MnSO4·4H2O, 0.15 g/L CuSO4·2H2O, 0.3 g/L H3BO3, 0.25 g/L Na2MoO4·2H2O, 0.8 g/L Zn(CH3COO)2, 5 g/L Fe(III) citrate, and 0.84 g/L ethylenediaminetetra-acetic acid (EDTA) at pH 8.0. The culture was grown at 28° C. for 3 days and the products were extracted with 1 ml hexane for GCMS analysis. An example of a fed-batch process for α-ionone Is briefly described, overnight culture was inoculated into 2 L chemical media comprising the base media and 5 g/L glucose, at 37° C. and 30% DO. pH was controlled at 7 with base solution (14% ammonia and 0.5 M NaOH). Feed media (500 g/L glucose and 5 g/L MgSO4) was added into bioreactor once OD600 reached 5, at a rate of 7.15-25.75 g/h glucose for about 4-5 h until OD600 reached ˜30-40. Subsequently, 0.1 mM IPTG was added to induce the production, and feeding rate was kept at a constant rate of 10 g/h glucose, and the temperature was reduced to 30° C. DO was adjusted to 2% or 10%. Feeding was stopped at 113 h when 2 L feeding media was finished, but the culture was further incubated for 24 h. To capture the evaporated products, the exhaust was connected to 25 ml sunflower oil.
Regarding B1, the “Fold change in in-vivo cis-α-irone production” value (“Fold change” below) worked out at 2.90.
For the molecule B2, the “Fold change” value is 1.02.
For the molecule B3, the “Fold change” value was 0.87.
For B4, the “Fold change” value is given as 0.90.

Staying with this assay, now noted: single mutations vs parent (pMT7 or pMT12).
As to B1, the “in-vivo production of cis-α-irone (in words)” value (“in-vivo production” below) is on record as “significant improvement”.
With B5, the “in-vivo production” value is reported as “increased cis-α-irone production in-vivo”.
On to B6, for which the “in-vivo production” value is “increased cis-α-irone production in-vivo”.

The values above are taken from patent publication US20240240209A1, “SYNTHESIS OF ENANTIOPURE CIS-A-IRONE FROM A RENEWABLE CARBON SOURCE” (Agency for Science, Technology and Research, priority 2021, published 2024).
